Experimental data: patent publication US9708383 (Novo Nordisk, dated 2017)
*1 amine or outer side, *2 acyl side, *3 side chain or, on linkers, in order; H or OH if unused. Where no end group is shown, it is not given here. Side-chain parts run from the residue outwards. [ ]: non-standard residue; d: D form. The star is where a group is joined. Decanoyl(10-(4-HOOC-PhO)) = O=C(O)c1ccc(OCCCCCCCCCC(=O)*)cc1; C16 diacid = O=C(O)CCCCCCCCCCCCCCC(=O)*; γGlu = O=C(O)[C@H](CCC(=O)[*:2])N[*:1]; Desaminohistidyl = O=C(CCc1c[nH]cn1)*; C12 diacid = O=C(O)CCCCCCCCCCC(=O)*; 13‑carboxytridecanoyl = C14 diacid; AEEA = NCCOCCOCC(=O)O; Aib = CC(C)(N)C(=O)O

target: T1, human GLP-1 receptor (human, UniProt P43220 24-463); assay: SPA, 2.0% vs 0.005% HSA
T1 construct: whole, on cells; Used as purified membranes of the transfected hamster cells, not whole cells; also called hGLP-1

How did the “ratio IC50 high HSA/IC50 low HSA” value turn out when H[Aib]EGTFTSDVSK([γGlu-AEEA-AEEA-13‑carboxytridecanoyl])YLEEQAAK([γGlu-AEEA-AEEA-13‑carboxytridecanoyl])EFIAWLVQGRG [GLP-1 derivative of Example 65: [Aib8,Lys18,Glu22,Gln34]-GLP-1-(7-37)-peptide] was run?
The value was over 1.

[Desaminohistidyl][Aib]EGTFTSDVSK([AEEA-AEEA-γGlu-C12 diacid])YLEEQAVREFIAK([AEEA-AEEA-γGlu-C12 diacid])LVG [GLP-1 derivative of Example 22: [Imp7,Aib8,Lys18,Glu22,Val25,Arg26,Lys31,Gly34]-GLP-1-(7-34)-peptide] was tested. Which “ratio IC50 high HSA/IC50 low HSA” value did it give?
Its value is over 1.

With [Desaminohistidyl]AEGTFTSDVSK([AEEA-AEEA-γGlu-Decanoyl(10-(4-HOOC-PhO))])YLEEQAARK([AEEA-AEEA-γGlu-Decanoyl(10-(4-HOOC-PhO))])FIAHLVG [GLP-1 derivative of Example 33: [Imp7,Lys18,Glu22,Arg26,Lys27,His31,Gly34]-GLP-1-(7-34)-peptide] as the binder, how does the “ratio IC50 high HSA/IC50 low HSA” value read?
The value was over 1.

Which “ratio IC50 high HSA/IC50 low HSA” value does the source give for H[Aib]EGTFTSDVSK([AEEA-AEEA-γGlu-Decanoyl(10-(4-HOOC-PhO))])YLEEQAAK([AEEA-AEEA-γGlu-Decanoyl(10-(4-HOOC-PhO))])EFIAWLVRG [GLP-1 derivative of Example 140: [Aib8,Lys18,Glu22,Arg34]-GLP-1-(7-35)-peptide] here?
Its value is over 1.

H[Aib]EGTFTSDVSK([AEEA-AEEA-γGlu-C12 diacid])YLEEQAVREFIAK([AEEA-AEEA-γGlu-C12 diacid])LVG [GLP-1 derivative of Example 8: [Aib8,Lys18,Glu22,Val25,Arg26,Lys31,Gly34]-GLP-1-(7-34)-peptide] was tested. Which “ratio IC50 high HSA/IC50 low HSA” value did it give?
The value was over 1.

Which “ratio IC50 high HSA/IC50 low HSA” value does the source give for H[Aib]EGTFTSDVSK([AEEA-γGlu-13‑carboxytridecanoyl])YLEEQAVREFIAK([AEEA-γGlu-13‑carboxytridecanoyl])LVG [GLP-1 derivative of Example 20: [Aib8,Lys18,Glu22,Val25,Arg26,Lys31,Gly34]-GLP-1-(7-34)-peptide] here?
Its value is over 1.

How did the “ratio IC50 high HSA/IC50 low HSA” value turn out when H[Aib]EGTFTSDVSK([AEEA-AEEA-γGlu-C12 diacid])YLEEQAAK([AEEA-AEEA-γGlu-C12 diacid])EFIAWLVQGRG [GLP-1 derivative of Example 39: [Aib8,Lys18,Glu22,Gln34]-GLP-1-(7-37)-peptide] was run?
Its value is over 1.

[Desaminohistidyl]AEGTFTSDVSK([AEEA-AEEA-γGlu-C16 diacid])YLEEQAARK([AEEA-AEEA-γGlu-C16 diacid])FIAWLVQGRG [GLP-1 derivative of Example 147: [Imp7,Lys18,Glu22,Arg26,Lys27,Gln34]-GLP-1-(7-37)-peptide] was tested. Which “ratio IC50 high HSA/IC50 low HSA” value did it give?
Its value is over 1.

For H[Aib]EGTFTSDVSK([AEEA-AEEA-γGlu-13‑carboxytridecanoyl])YLEEQAVREFIAK([AEEA-AEEA-γGlu-13‑carboxytridecanoyl])LVG [GLP-1 derivative of Example 5: [Aib8,Lys18,Glu22,Val25,Arg26,Lys31,Gly34]-GLP-1-(7-34)-peptide], which “ratio IC50 high HSA/IC50 low HSA” value is on record?
Its value is over 1.

For H[Aib]EGTFTSDVSK([AEEA-AEEA-γGlu-13‑carboxytridecanoyl])YLEERAVREFIAK([AEEA-AEEA-γGlu-13‑carboxytridecanoyl])LVG, which “ratio IC50 high HSA/IC50 low HSA” value is on record?
Its value is over 1.

H[Aib]EGTFTSDVSK([AEEA-AEEA-γGlu-13‑carboxytridecanoyl])YLEEQAVHEFIAK([AEEA-AEEA-γGlu-13‑carboxytridecanoyl])LVG [GLP-1 derivative of Example 7: [Aib8,Lys18,Glu22,Val25,His26,Lys31,Gly34]-GLP-1-(7-34)-peptide] was tested. Which “ratio IC50 high HSA/IC50 low HSA” value did it give?
The value was over 1.

Which “ratio IC50 high HSA/IC50 low HSA” value does the source give for H[Aib]EGTFTSDVSK([AEEA-AEEA-γGlu-C12 diacid])YLEEQAVHEFIAK([AEEA-AEEA-γGlu-C12 diacid])LVG [GLP-1 derivative of Example 27: [Aib8,Lys18,Glu22,Val25,His26,Lys31,Gly34]-GLP-1-(7-34)-peptide] here?
Its value is over 1.

Which “ratio IC50 high HSA/IC50 low HSA” value does the source give for H[Aib]EGTFTSDVSK([AEEA-AEEA-γGlu-13‑carboxytridecanoyl])YLEEQAVREFIEK([AEEA-AEEA-γGlu-13‑carboxytridecanoyl])LVG [GLP-1 derivative of Example 6: [Aib8,Lys18,Glu22,Val25,Arg26,Glu30,Lys31,Gly34]-GLP-1-(7-34)-peptide] here?
Its value is over 1.

Which “ratio IC50 high HSA/IC50 low HSA” value does the source give for H[Aib]EGTFTSDVSK([AEEA-AEEA-γGlu-C12 diacid])YLEEQAVRK([AEEA-AEEA-γGlu-C12 diacid])FIAHLVG here?
The value was over 1.

Which “ratio IC50 high HSA/IC50 low HSA” value does the source give for H[Aib]EGTFTSDVSK([AEEA-AEEA-γGlu-13‑carboxytridecanoyl])YLEEQAVRHFIAK([AEEA-AEEA-γGlu-13‑carboxytridecanoyl])LVG here?
Its value is over 1.

target: T1, human GLP-1 receptor; assay: SPA, displacement of 125I-GLP-1(7-36)NH2, 0.005% HSA

H[Aib]EGTFTSDVSK([γGlu-AEEA-AEEA-13‑carboxytridecanoyl])YLEEQAAK([γGlu-AEEA-AEEA-13‑carboxytridecanoyl])EFIAWLVQGRG [GLP-1 derivative of Example 65: [Aib8,Lys18,Glu22,Gln34]-GLP-1-(7-37)-peptide] was tested. Which IC50 did it give?
Its IC50 is under 1000 nM.

Which IC50 does the source give for [Desaminohistidyl][Aib]EGTFTSDVSK([AEEA-AEEA-γGlu-C12 diacid])YLEEQAVREFIAK([AEEA-AEEA-γGlu-C12 diacid])LVG [GLP-1 derivative of Example 22: [Imp7,Aib8,Lys18,Glu22,Val25,Arg26,Lys31,Gly34]-GLP-1-(7-34)-peptide] here?
Its IC50 is under 1000 nM.

[Desaminohistidyl]AEGTFTSDVSK([AEEA-AEEA-γGlu-Decanoyl(10-(4-HOOC-PhO))])YLEEQAARK([AEEA-AEEA-γGlu-Decanoyl(10-(4-HOOC-PhO))])FIAHLVG [GLP-1 derivative of Example 33: [Imp7,Lys18,Glu22,Arg26,Lys27,His31,Gly34]-GLP-1-(7-34)-peptide] was tested. Which IC50 did it give?
The IC50 was under 1000 nM.

How did the IC50 turn out when H[Aib]EGTFTSDVSK([AEEA-AEEA-γGlu-Decanoyl(10-(4-HOOC-PhO))])YLEEQAAK([AEEA-AEEA-γGlu-Decanoyl(10-(4-HOOC-PhO))])EFIAWLVRG [GLP-1 derivative of Example 140: [Aib8,Lys18,Glu22,Arg34]-GLP-1-(7-35)-peptide] was run?
Its IC50 is under 1000 nM.

Which IC50 does the source give for H[Aib]EGTFTSDVSK([AEEA-AEEA-γGlu-C12 diacid])YLEEQAVREFIAK([AEEA-AEEA-γGlu-C12 diacid])LVG [GLP-1 derivative of Example 8: [Aib8,Lys18,Glu22,Val25,Arg26,Lys31,Gly34]-GLP-1-(7-34)-peptide] here?
The IC50 was under 1000 nM.

How did the IC50 turn out when H[Aib]EGTFTSDVSK([AEEA-γGlu-13‑carboxytridecanoyl])YLEEQAVREFIAK([AEEA-γGlu-13‑carboxytridecanoyl])LVG [GLP-1 derivative of Example 20: [Aib8,Lys18,Glu22,Val25,Arg26,Lys31,Gly34]-GLP-1-(7-34)-peptide] was run?
Its IC50 is under 1000 nM.

For H[Aib]EGTFTSDVSK([AEEA-AEEA-γGlu-C12 diacid])YLEEQAAK([AEEA-AEEA-γGlu-C12 diacid])EFIAWLVQGRG [GLP-1 derivative of Example 39: [Aib8,Lys18,Glu22,Gln34]-GLP-1-(7-37)-peptide], which IC50 is on record?
The IC50 was under 1000 nM.

Which IC50 does the source give for [Desaminohistidyl]AEGTFTSDVSK([AEEA-AEEA-γGlu-C16 diacid])YLEEQAARK([AEEA-AEEA-γGlu-C16 diacid])FIAWLVQGRG [GLP-1 derivative of Example 147: [Imp7,Lys18,Glu22,Arg26,Lys27,Gln34]-GLP-1-(7-37)-peptide] here?
The IC50 was under 1000 nM.

For H[Aib]EGTFTSDVSK([AEEA-AEEA-γGlu-13‑carboxytridecanoyl])YLEEQAVREFIAK([AEEA-AEEA-γGlu-13‑carboxytridecanoyl])LVG [GLP-1 derivative of Example 5: [Aib8,Lys18,Glu22,Val25,Arg26,Lys31,Gly34]-GLP-1-(7-34)-peptide], which IC50 is on record?
Its IC50 is under 1000 nM.

How did the IC50 turn out when H[Aib]EGTFTSDVSK([AEEA-AEEA-γGlu-13‑carboxytridecanoyl])YLEERAVREFIAK([AEEA-AEEA-γGlu-13‑carboxytridecanoyl])LVG was run?
The IC50 was under 1000 nM.

How did the IC50 turn out when H[Aib]EGTFTSDVSK([AEEA-AEEA-γGlu-13‑carboxytridecanoyl])YLEEQAVHEFIAK([AEEA-AEEA-γGlu-13‑carboxytridecanoyl])LVG [GLP-1 derivative of Example 7: [Aib8,Lys18,Glu22,Val25,His26,Lys31,Gly34]-GLP-1-(7-34)-peptide] was run?
Its IC50 is under 1000 nM.

H[Aib]EGTFTSDVSK([AEEA-AEEA-γGlu-C12 diacid])YLEEQAVHEFIAK([AEEA-AEEA-γGlu-C12 diacid])LVG [GLP-1 derivative of Example 27: [Aib8,Lys18,Glu22,Val25,His26,Lys31,Gly34]-GLP-1-(7-34)-peptide] was tested. Which IC50 did it give?
Its IC50 is under 1000 nM.

How did the IC50 turn out when H[Aib]EGTFTSDVSK([AEEA-AEEA-γGlu-13‑carboxytridecanoyl])YLEEQAVREFIEK([AEEA-AEEA-γGlu-13‑carboxytridecanoyl])LVG [GLP-1 derivative of Example 6: [Aib8,Lys18,Glu22,Val25,Arg26,Glu30,Lys31,Gly34]-GLP-1-(7-34)-peptide] was run?
Its IC50 is under 1000 nM.

With H[Aib]EGTFTSDVSK([AEEA-AEEA-γGlu-C12 diacid])YLEEQAVRK([AEEA-AEEA-γGlu-C12 diacid])FIAHLVG as the binder, how does the IC50 read?
Its IC50 is under 1000 nM.

Which IC50 does the source give for H[Aib]EGTFTSDVSK([AEEA-AEEA-γGlu-13‑carboxytridecanoyl])YLEEQAVRHFIAK([AEEA-AEEA-γGlu-13‑carboxytridecanoyl])LVG here?
Its IC50 is under 1000 nM.
